Assay results published in patent US20040131585A1.

Target: human CXCR4 on intravenously injected human CD34+ angioblasts (human) (UniProt P61073)
Assay: cell-based or functional assay

Sequence of UniProt P61073 (P61073 whole entry): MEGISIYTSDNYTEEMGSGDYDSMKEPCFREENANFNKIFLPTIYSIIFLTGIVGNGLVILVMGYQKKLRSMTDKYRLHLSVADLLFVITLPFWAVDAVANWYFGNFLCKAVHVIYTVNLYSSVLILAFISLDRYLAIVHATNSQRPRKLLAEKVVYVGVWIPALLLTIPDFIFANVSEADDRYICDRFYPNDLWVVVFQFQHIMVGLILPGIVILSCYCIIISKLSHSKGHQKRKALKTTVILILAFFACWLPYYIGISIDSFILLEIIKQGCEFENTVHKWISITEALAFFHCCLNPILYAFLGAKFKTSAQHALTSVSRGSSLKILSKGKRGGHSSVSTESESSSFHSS

An increase in trafficking of CD34+ human angioblasts to ischemic rat myocardium, with co-administered mAb against human CXCR4 of 24% and an increase in trafficking of CD34+ human angioblasts to ischemic rat myocardium, with co-administered mAb against rat SDF-1 of 17% were found for “rat SDF-1 (stromal-derived factor-1) (ligand)” in this work.
